# Results from paper PMC4081063, “The conformational state of the nucleosome entry–exit site modulates TATA box-specific TBP binding”.
# B1: TATA-14E (dsDNA)
# DNA 1: GGCTATAAAAGGGG
# DNA 2: CCCCTTTTATAGCC
# B2: TATA-14I (dsDNA)
# DNA 1: TGGTATAAAAGGGTGCGGACACGTG
# DNA 2: CACGTGTCCGCACCCTTTTATACCA
# B3: TATA-14E* (dsDNA)
# DNA 1: GGGTATAAAAGGGG
# DNA 2: CCCCTTTTATACCC
# B4: TATA-18I (dsDNA)
# DNA 1: TGGGGTATAAAAGGGGGTGGACACGTG
# DNA 2: CACGTGTCCACCCCCTTTTATACCCCA
# What was measured:
# [1] = molecular target: T1, TBP (human TATA binding protein) (Homo sapiens, UniProt P20226 1-339); test: bulk FRET; 50 mM KCl, 4 mM Mg2+; 20 mM Tris pH 7.9, 4 mM MgCl2, 1 mM DTT, 5% glycerol, 5-150 mM KCl as indicated, 1 nM labeled DNA (1-5 nM in Results), 20 min; 25 C (37 C tested); conditions: protein: recombinant; label: 5' ends labeled with donor (Atto-488) and acceptor (Atto-633 or Atto-647N); blunt
# T1 sequence (P20226 whole entry): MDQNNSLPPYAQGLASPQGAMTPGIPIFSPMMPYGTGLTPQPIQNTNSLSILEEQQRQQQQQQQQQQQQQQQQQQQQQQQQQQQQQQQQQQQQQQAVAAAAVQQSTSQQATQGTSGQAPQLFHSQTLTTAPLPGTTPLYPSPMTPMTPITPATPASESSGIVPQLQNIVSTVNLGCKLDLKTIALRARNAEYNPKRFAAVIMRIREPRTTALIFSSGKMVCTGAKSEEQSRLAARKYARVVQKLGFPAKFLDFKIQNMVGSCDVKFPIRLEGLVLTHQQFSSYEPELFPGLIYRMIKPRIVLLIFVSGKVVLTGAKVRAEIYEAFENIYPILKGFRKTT
# [2] = molecular target: T1, TBP (human TATA binding protein); test: bulk FRET; 150 mM KCl, 4 mM Mg2+; 20 mM Tris pH 7.9, 4 mM MgCl2, 1 mM DTT, 5% glycerol, 5-150 mM KCl as indicated, 1 nM labeled DNA (1-5 nM in Results), 20 min; 25 C (37 C tested); conditions: protein: recombinant, blunt
# [3] = molecular target: T1, TBP (human TATA binding protein); test: bulk FRET; similar to TATA-14E; stoichiometry 1.1 TBP:DNA; 20 mM Tris pH 7.9, 4 mM MgCl2, 1 mM DTT, 5% glycerol, 5-150 mM KCl as indicated, 1 nM labeled DNA (1-5 nM in Results), 20 min; 25 C (37 C tested); conditions: protein: recombinant; label: 5' ends labeled with donor and acceptor; blunt
# [4] = molecular target: T1, TBP (human TATA binding protein); test: bulk FRET; 5-150 mM KCl; biphasic at low salt; similar at 25 and 37 C; 20 mM Tris pH 7.9, 4 mM MgCl2, 1 mM DTT, 5% glycerol, 5-150 mM KCl as indicated, 1 nM labeled DNA (1-5 nM in Results), 20 min; 25 C (37 C tested); conditions: protein: recombinant; label: 5' donor and internal amino-dT acceptor 18 bp away, same strand; blunt
binder,measurement,setting,value
B1,Kd,[1],5 ± 1 nM
same,Kd,[2]; label: 5' ends labeled with donor (Atto-488) and acceptor (Atto-633 or Atto-647N),10 ± 3 nM
B2,Kd,"[2]; label: 5' donor and internal amino-dT acceptor 14 bp away, same strand",6 ± 1 nM
B3,binding result,[3],binds
B4,binding result,[4],binds
